Laboratory results from the supplement of paper PMC9170038.

Test system: MS2 coat protein
Assay: apparent KD of MS2 coat protein; higher = weaker reporter binding
Conditions: Eterna round: R107
Procedure, shortened: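 With or without constant ligand, designed RNA switches in 100 mM Tris-HCl pH 7.5, 80 mM KCl and 4 mM MgCl2 were titrated with SNAP-549-labelled MS2 coat protein. Concentrations went up in twofold steps from 0.7 or 1.5 nM to 3 µM. The switches had been transcribed on-chip from Illumina sequencing clusters, and apparent KD is the per-design median of normalised cluster binding-curve fits.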

[1] = input ligand: theophylline 20 uM
[2] = input ligand: theophylline 2 mM
[3] = input ligand: tryptophan 2.4 mM

Sequence | apparent KD of MS2 coat protein (input ligand: arginine 13.2 mM) [nM] | apparent KD of MS2 coat protein [1] [nM] | apparent KD of MS2 coat protein [2] [nM] | apparent KD of MS2 coat protein (input ligand: none) [nM] | apparent KD of MS2 coat protein [3] [nM]
GUCUUUGACGAUCUGGGAAAACCAGAUCGACGAGGACCGGUACGGCCGCCACUCGUGUUUUCUUUACAUGAGGAUCACCCAUGUA [#17 Tryptophan A Same State] | 13.2 | 15.7 | 15.1 | – | –
UGUAUGUGAUUUGAUACCAGACCAGCUGGUGUUCCAUGAGGAUCACCCAUGGAGGUUUGGGUCCCUUGGCAGCAAAUCGCAUACU [SS Theo B #24 Ms16] | 33.2 | 34 | 23.2 | 25.2 | 30.3
ACUACAAAGUAGUAUAUACGAAAGUAUAGACGAGGACCGGUACGGCCGCCACUCGGUACCGGAAACACAUGAGGAUCACCCAUGU [Ex_TrypA - 3H] | 17 | 25 | 23 | – | –
ACUUCAUGAGGUGAUACCAGCCAAUGACAUGAGGACAUGAGGAUCACCCAUGUUUAUGUAGGCCCUUGGCAGCACUGUAACAUGA [Same State Theophylline B 4] | 19.5 | 31.8 | – | – | 19.7
UUGACAUGAGGAUCACCCAUGUUAGCGGAAGGAGCGCGGUAGUACGCAGGUAGGUCGCCGAGAACAGUGAUAGUUGUUCUCAUGU [X-ArgiA-ms2@4-1] | 27.6 | 85 | 91.2 | 76.6 | 46.9
GGGAGGGAGGCGGCCGCCACUGAUUUUCAUAUAUAUAUAACAUGAGGAUCACCCAUGUGGAUAUGCAGGACCGGGCCUUUUUUUU [aaaJ] | 123 | 18.8 | 13.2 | 22.2 | 20.2
GGGUGGUAGGCGGCCGCCACUGAUUUUCAUUCAUAGAUGACAUGAGGAUCACCCAUGUUUAUGUGCAGGACCGGGCCUGCUGUGG [aaaU] | 43.4 | 102 | 115 | 144 | 116
CUAAGAGUUACGGCCGCCACUAGUUGGGAUCCGCCCGUAAAAUCACAUGAGGAUCACCCAUGUCCUAGGACCGGGUAAUCGCAUU [theeternabot_sameState_MS2_Trp_B_31] | 110 | 616 | 499 | – | –
AAUAACAUGAGGAUCACCCAUGUAAAAGAUACCAGAUGCAUGAUGAUCCCUUGGCAGCUUAAACGCGAUUGGAAACAAUCGCGAA [Mat - Same State Theophlline A - Mod of Eli - D11] | 37.1 | 40 | – | – | 38.3
UGUAUGUGAUCUGAUACCAGAGUUGAUAACCUGAGGAUCACCCUGGUAAAGGCGAAAGCCCUCCCUUGGCAGCAGAUCGCAUACU | 121 | 207 | 34.6 | 216 | 239
UACAUGAGGAUCACCCAUGUAUAGAGGGAUACCAGUGUCAGUGAGCACCCUUGGCAGCCCGCGAACAAUGGGUGCGCUAAAUAGU [#19 Exclusion-TheophyllineA] | 23.2 | 75.3 | – | – | 32.4
UGACAUUGCUCAGAUACCAGACAUGAGGAUCACCCAUGUACCAAGGUAAGAAAAUAACAUGUCCCUUGGCAGCUGAGCAAUGUCU [First try #MS2Left #Theo2] | 16.4 | 38.4 | – | – | 14.6
AGCCCGUGAGCGGCCGCCACUGGAGGCUUUGCGCGACAUGAGGAUCACCCAUGUGUGCCCGGCGUUAGGACCGGGCUCACGUGGU [#1 Same State - Tryptophan B Attempt #20 (HarryS)] | 43.8 | 302 | 288 | 182 | 110
UGGUGCCCUGUAUACAUUGUAAUCCUAAUGCGAGGACCGGUACGGCCGCCACUCGUUGCGGAACAUGAGGAUCACCCAUGUAACA [theeternabot_exclusion_MS2_Trp_A_21] | 17 | 26.2 | 32 | – | –
AUAACUGUAAUAAACCGCAGGCUAGUGGAAGGAGCGCGGAAUAACGCAGGUAGGUCGCCACAAACUUGAGGAUCACCCAGGUGGC [SSAA NP+V+V2 #7 Diff Apt] | 38.1 | 78.8 | 57.7 | 49 | 48.6
CUGCCAUGCAGAGAUACCAGUGCGCUCAGCACAUGAGGAUCACCCAUGUAGGAUGCCAAUCACCCUUGGCAGCUCUGCAUGGCAG [~`&)_] | 15.5 | 22.8 | 12.8 | 15.7 | 16.3
GCUGCCAUACGAAGGAGCGCUGGUGUAGUGCGGCGAACAUGAGGAUCACCCAUGUGGCAGCAGCAGGUAGGUCGCGUAUGGCAGC [EAB #14] | 12.3 | 14.6 | 12.6 | 11.2 | 11
ACUCGGUGUUUGUUGCUCCGAGUGUAUGAUACCAGUCAGUUUUAUGGCCCUUGGCAGCAUAGGACAUGAGGAUCACCCAUGUGUU [#01 SameState-TheophyllineA] | 32.9 | 49 | 33.8 | 44.9 | 50.8
GUGAAGUUAGUGAGCGUUAGUCAAGCCAAACGAGGACCGGUACGGCCGCCACUCGCGCAUCGACAUGAGGAUCACCCAUGUGCCG [theeternabot_exclusion_MS2_Trp_A_12] | 18.4 | 15.7 | 17.7 | – | –

Sequence | apparent KD of MS2 coat protein (input ligand: arginine 13.2 mM) [nM] | apparent KD of MS2 coat protein [1] [nM] | apparent KD of MS2 coat protein [2] [nM] | apparent KD of MS2 coat protein (input ligand: none) [nM] | apparent KD of MS2 coat protein [3] [nM]
GUUAUAUGAAAACAUAUAACAGUGGGUGAACGAGGACCGGUACGGCCGCCACUCGGACAUGAGGAUCACCCAUGUCCAUGUGAAA [AstrosExyTryA#6] | 15.2 | 17.4 | 22 | – | –
AUGCGCUAUAUGGAUACCAGUAUGAUAAUUGACAUGAGGAUCACCCAUGUGAGCUCUACCUACCCUUGGCAGCCAACCCUAUUUG [theeternabot_sameState_MS2_Theo_B_26] | 21.7 | 29.9 | – | – | 23
AAUUCCUAACAUGAGGAUCACCCAUGUGAAGGAGCGCCGAAUAAGGCAGGUAGGUCGCACAUGGAACAGCUGCGAAAGAGGAAAA [XArg-A 5 V1&2] | 11.9 | 15.3 | 12.5 | 13.2 | 12.7
GCUACAUGAGGAUCACCCAUGUAUGCGAGCCGAGGACCGGUACGGCCGCCACUCGCUUAACAUGAGGAUCACCCAUGUUGCUCGG [SSTA DOUBLE!!! :-D #17] | 38.9 | 77.8 | 55.1 | – | –
AAAGGUCGCAAUAAAUCUCCUACAUGUGAAGGAGCGCCCGAAAGGGCAGGUAGGUCGCACAUGAGGAUCACCCAUGUGAGCGACC [MAT - Exclusion Arginine A - Mod of Eli - D2] | 10.3 | 14.6 | 13 | 12.4 | 11.8
UCGCGAUAGAGAAGGAGCGUCAACACCACUUAACAUGAGGAUCACCCAUGUGUUACUUUAAGACAGGUAGGUCGCUCUAGCGCUU [JR_Nu_ExcArginiB_Sub027] | 12.7 | 16.5 | 14.2 | 12.4 | 11.5
AAUUGGGUUGGUGAGGUGGUUGGAGGCGAUACCAGCGUGGAAACACGCCCUUGGCAGCGCCAGGACAUGAGGAUCACCCAUGUUA [Brno] | 48.9 | 160 | 448 | 131 | 175
AUGCGGUGCGGAAGGAGCGAGUUUGCCUAUUUACAUGAGGAUCACCCAUGUCCUAAUGGGACUCAGGUAGGUCGCCGUUGUUGCA [Same State Arginine B GF30] | 42 | 71.4 | 47.9 | 45 | 41.6
UGUAUGUGAUUUGAUACCAGACCAGCUGGUGGUACCUGAGGAUCACCCGGGUAGGUUUGGGUCCCUUGGCAGCAAAUCGCAUACU [SS Theo B #24 Ms8] | 48.6 | 52.1 | 31.5 | 48.6 | 48.6
UGGUACAUGGCGGCCGCCACUGGGUUGAAUACCUGAGGAUCACCCUGGUAAAACGCGAAAGCGACUAGGACCGGGUCAUGUACCU | 98.8 | 162 | 385 | 148 | 44.5
GCACAAGAUGGAAGGAGCGCUGGUAGGUGACACAUGAGGAUCACCCAUGUGCUCCUUGCCGAGCAGGUAGGUCGCCAUCUUGUGC [SSAB NP+V+V2 #7] | 21.1 | 40.3 | 36.1 | 27.7 | 25.5
GAGUAGAGGACGGCCGCCACUAAACAUGAGGAUCACCCAUGUCGUGAUCCGUUACCUAGAGUAGAUAGGACCGGGUCAUAUAGUC [Exclusion Tryptophan B GF 16] | 20.8 | 41.5 | 24.5 | – | –
UGACAUUGCUGCGAUACCAGACAUGAGGAUCACCCAUGUACCAAGGUAAAGAAAUAACGUGUCCCUUGGCAGCGCAGCAAUGUCU [MAT - Exclusion Theophlline B - Mod of Eli - D8] | 11.5 | 13.9 | – | – | 10.1
CCUCAUGUGACGGCCGCCACUGAAGUGAUCGAAACAUGAGGAUCACCCAUGUUACGAUCAGAGAACAGGACCGGGUCAACAUGGG [Try B SS s1] | 7.46 | 13.6 | 13.1 | 9.32 | 9.85
UGUGCAGGAUGCGUAAAGGGUCUUGCGCAUCGAGGACCGGUACGGCCGCCACUCGGCUGUACAUGAGGAUCACCCAUGUCAGGGU [#1 Same State - Tryptophan A Attempt #19 (HarryS)] | 87.1 | 445 | 1830 | 477 | 533
ACAUUUAACUGAAGGAGCGUGAUAUUUACAUGAGGAUCACCCAUGUCUUUCAUGAAUAAUUCACAGGUAGGUCGCAGACUAAUGA [JR_ExcArginiB_Sub007] | 96.8 | 159 | 158 | 116 | 129
UUUUAGCAUCGAAGGAGCGCUGGUAGGUGACACAUGAGGAUCACCCAUGUGCUCCUUACCGAGCAGGUAGGUCGCGAUGCUAUUU [SSAB NP+V+V2 #9] | 20 | 35.4 | 29.4 | 23.7 | 25.1
ACGCACAUGAGGAUCACCCAUGUGAACCUACGAGGACCGGUACGGCCGCCACUCGCUGUUCCUACCGGCUUAAUUGUCACUGGGU [theeternabot_sameState_MS2_Trp_A_19] | 27.3 | 54.4 | 49 | – | –
GCCAGACAUGAGGAUCACCCAUGUAGCGAUACCAGCUCUGUUGUGAGCCCUUGGCAGCGCACUGGCAUCGCGGGUGAUCCUGCAU [(T)''-(Ms2)-(Theo)-(T)'-(M)'-(M)''_Design3] | 15.1 | 137 | – | – | 33.1
